The record followed here is patent US20220259593A1, “CONTROL OF MAMMALIAN GENE DOSAGE USING CRISPR” (The Regents of the University of California, priority 2019, published 2022).

The test system of the data set is K562 CRISPRi cells. As to the kind of experiment: Constant region variant library pooled growth screen, K562. The format is cell-based, human. The settings on record: sgRNA constant region variants; activity relative to the original, un-modified constant region cr995. In outline: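 Cells were selected with puromycin for 2 days and then kept in RPMI-1640 spinner cultures, with duplicates handled separately. Targeting sequences comprised 3 sgRNAs per essential gene for 10 genes plus six non-targeting controls. Activities were normalized against pairing with the unmodified scaffold.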

B1: cr193 (nucleic acid)
guide: GTTTAAGAGCTAAGCTGGAAACAGCATAGCAAGTTTAAATAAAGCTAGTCTGTTATCAATTTGAAAAAATGCCACCGAGTCGGTGGT
modifications: listed as DNA, chemistry not fully specified
Turning to B1, the Mean relative activity turned out to be 0.06081.

B2: cr483 (nucleic acid)
guide: GTTTAAGAGCTAAGCTGGAAACAGCATAGCAAGTTTAAATAAGGCTAGTCCGTTATCAACTAGAAATAGTGGCGTCGAGTCGACGCT
modifications: listed as DNA, chemistry not fully specified
Consider B2, for which the Mean relative activity came out at 1.037.

B3: cr582 (nucleic acid)
guide: GTTTAAGAGCTAAGCTGGAAACAGCATAGCAAGTTTAAATACGGCTTGTCCGTTATCAACTTCAAAAAGTGGCACCGAGTCGGTGCT
modifications: listed as DNA, chemistry not fully specified
B3 registered a Mean relative activity of 0.07315.

B4: cr776 (nucleic acid)
guide: GTTTAAGAGCTAAGCTGGAAACAGCATAGCAAGTTTAAATAAGGCTAGTCCGTTATCATCTAGAAATAGAGGCACCGAGTCGGTGCT
modifications: listed as DNA, chemistry not fully specified
Regarding B4, the Mean relative activity was 1.037.

B5: cr045 (nucleic acid)
guide: TTTTATGAGCTAAGCTGGAAACAGCATAGCAAGTTTAAATAAGGCTAGTCCGTTATCAACTTGAAAAAGTGGCACCGAGTCGGTGCT
modifications: listed as DNA, chemistry not fully specified
Take B5: the Mean relative activity is on record as 0.04839.

B6: cr467 (nucleic acid)
guide: GTTTAAGAGCTAAGCTGGAAACAGCATAGCAAGCTTAAATAAGGCTAGTCCGTTATCAATTTGAAAAAATGGCACCGAGTCGGTGCT
modifications: listed as DNA, chemistry not fully specified
For the molecule B6, the Mean relative activity is on record as 0.06565.

B7: cr138 (nucleic acid)
guide: GTTTAAGAGCTAAGCTGGAAACAGCATAGCAAGCTTAAATAAGGCTAGTCCGTTATCAACTTGAAAAAGTGGCACGGAGTCCGTGCT
modifications: listed as DNA, chemistry not fully specified
B7: the Mean relative activity worked out at 0.04307.

B8: cr298 (nucleic acid)
guide: GTTTAAGAGCTAAGCTGGAAACAGCATAGCAAGTTTAAATAAGGCTAGTCCTTTATCAACTTGAAAAAGTGGCACCGACTCGGTGCT
modifications: listed as DNA, chemistry not fully specified
Regarding B8, the Mean relative activity is 0.06335.

B9: cr985 (nucleic acid)
guide: GTTTAAGAGCTAAGCTGGAAACAGCATAGCAAGTTTAAATAAGGCTAGTCCTTTATCAACTTGAAAAAGTGGCACCGAGTCGGTGCT
modifications: listed as DNA, chemistry not fully specified
As for B9, the Mean relative activity is recorded as 0.07562.

B10: cr038 (nucleic acid)
guide: GTTTGCGAGCTAAGCTGGAAACAGCATAGCAAGTTTAAATAAGGCTAGTCCGTTATCAACTTGAAAAAGTGGCACCGAGTCGGTGCT
modifications: listed as DNA, chemistry not fully specified
Molecule B10 returned a Mean relative activity of 0.07321.

B11: cr097 (nucleic acid)
guide: GCTTACGAGCTAAGCTGGAAACAGCATAGCAAGTTTAAATAAGGCTAGTCCGTTATCAACTTGAAAAAGTGGCACCGAGTCGGTGCT
modifications: listed as DNA, chemistry not fully specified
B11 came in with a Mean relative activity of 0.06585.

B12: cr438 (nucleic acid)
guide: GTTTAAGAGCTAAGCTGGAAACAGCATAGCCAGTTTAAATACGGCTAGTCCGTTGTCAACTTGAAAAAGTGGCACCGAGTCGGTGCT
modifications: listed as DNA, chemistry not fully specified
With B12, the Mean relative activity is 0.06886.

B13: cr061 (nucleic acid)
guide: GTTCAACAGCTAAGCTGGAAACAGCATAGCAAGTTTAAATAAGGCTAGTCCGTTATCAACTTGAAAAAGTGGCACCGAGTCGGTGCT
modifications: listed as DNA, chemistry not fully specified
B13: the Mean relative activity was determined as 0.05691.

B14: cr625 (nucleic acid)
guide: GTTTAAGAGCTAAGCTGGAAACAGCATAGCAAGCTTAAATAAGGCTAGTCCGTTATCAACTTGAAAAAGTGGCACCTAGTAGGTGCT
modifications: listed as DNA, chemistry not fully specified
B14 had a Mean relative activity of 0.04332.

B15: cr082 (nucleic acid)
guide: CGTTAAGAGCTAAGCTGGAAACAGCATAGCAAGTTTAAATAAGGCTAGTCCGTTATCAACTTGAAAAAGTGGCACCGAGTCGGTGCT
modifications: listed as DNA, chemistry not fully specified
Take B15: the Mean relative activity stood at 0.0741.

B16: cr677 (nucleic acid)
guide: GTTTAAGAGCTAAGCTGGAAACAGCATAGCAAGTTTAAATTAGGCTAGTCCGTTATCAACTTGAAAAAGTGGCACCGAGTCGGTGCT
modifications: listed as DNA, chemistry not fully specified
B16 had a Mean relative activity of 0.04623.

B17: cr741 (nucleic acid)
guide: GTTTAAGAGCTAAGCTGGAAACAGCATGGCAAGTTTAAATACGGCTAGACCGTTATCAACTTGAAAAAGTGGCACCGAGTCGGTGCT
modifications: listed as DNA, chemistry not fully specified
In turn, B17 yielded a Mean relative activity of 0.06347.

B18: cr050 (nucleic acid)
guide: CTTTAGGAGCTAAGCTGGAAACAGCATAGCAAGTTTAAATAAGGCTAGTCCGTTATCAACTTGAAAAAGTGGCACCGAGTCGGTGCT
modifications: listed as DNA, chemistry not fully specified
In the case of B18, the Mean relative activity came out at 0.04785.

B19: cr764 (nucleic acid)
guide: GTTTAAGAGCTAAGCTGGAAACAGCATAGCAACTTTAAATAAGGCTAGTCCGTTATCAACTTGAAAAAGTGGCACCGAGTCGGTGCT
modifications: listed as DNA, chemistry not fully specified
Regarding B19, the Mean relative activity is listed as 0.04863.

B20: cr514 (nucleic acid)
guide: GTTTAAGAGCTAAGCTGGAAACAGCATAGCAACTTTAAATAAGGCTAGTCCGTTATCAACTTGAAAAAGTGGGACCGAGTCGGTCCT
modifications: listed as DNA, chemistry not fully specified
As to B20, the Mean relative activity came to 0.05776.

B21: cr465 (nucleic acid)
guide: GTTTAAGAGCTAAGCTGGAAACAGCATAGCAAGCTTAAATAAGGATATTCCGTTATCAACTTGAAAAAGTGGCACCGAGTCGGTGCT
modifications: listed as DNA, chemistry not fully specified
The molecule B21 returned a Mean relative activity of 0.04864.

B22: cr197 (nucleic acid)
guide: GTTTAAGAGCTAAGCTGGAAACAGCATAGCAAGTTTAAATAATGCTAGTCAGTTATCAACTGGAAACAGTGGCACCGAGTCGGTGCT
modifications: listed as DNA, chemistry not fully specified
For the molecule B22, the Mean relative activity is 0.06436.

B23: cr928 (nucleic acid)
guide: GTTTAAGAGCTAAGCTGGAAACAGCATAGCTAGTTTAAATGAGGCTAGTCCGTAATCAACTTGAAAAAGTGGCACCGAGTCGGTGCT
modifications: listed as DNA, chemistry not fully specified
Consider B23, for which the Mean relative activity is listed as 0.05583.

B24: cr588 (nucleic acid)
guide: GTTTAAGAGCTAAGCTGGAAACAGCATAGCAACTTTAAATAAGGCTAGTCCGTTATCAACTTGAAAAAGTGGTACCGAGTCGGTACT
modifications: listed as DNA, chemistry not fully specified
On to B24, for which the Mean relative activity was 0.07507.

B25: cr422 (nucleic acid)
guide: GTTTAAGAGCTAAGCTGGAAACAGCATAGCAAGTTTAAATAAGGCTAGTCCGTTATCAACTTGAAAAAGTGGTACCGAGTCGTTCCT
modifications: listed as DNA, chemistry not fully specified
The molecule B25 displayed a Mean relative activity of 0.0493.

B26: cr419 (nucleic acid)
guide: GTTTAAGAGCTAAGCTGGAAACAGCATAGCAACTTTAAATAAGGCTAGTCCGTTATCAACTTGAAAAAGTGGAACCGAGTCGGTTCT
modifications: listed as DNA, chemistry not fully specified
As for B26, the Mean relative activity was found to be 0.05682.

B27: cr188 (nucleic acid)
guide: GTTTAAGAGCTAAGCTGGAAACAGCATAGCAAGTTTAAATAATGCTAGTCAGTTATCAACCTGAAAAGGTGGCACCGAGTCGGTGCT
modifications: listed as DNA, chemistry not fully specified
As to B27, the Mean relative activity is 0.04409.

B28: cr115 (nucleic acid)
guide: GTTTAAGAGCTAAGCTGGAAACAGCATAGCAAGTTTAAATAATGCTAGTCAGTTATCAACTCGAAAGAGTGGCACCGAGTCGGTGCT
modifications: listed as DNA, chemistry not fully specified
Molecule B28 yielded a Mean relative activity of 0.05506.

B29: cr211 (nucleic acid)
guide: GTTTAAGAGCTAAGCTGGAAACAGCATAGCAAGTTTAAATAAGTCTAGTCCGTTATCAACTTGAAAAAGTGGCACCGAGTCGGTGCT
modifications: listed as DNA, chemistry not fully specified
For B29, the Mean relative activity is given as 0.04075.
